Measurements reported in US20210130436A1 (published 2021).

Experiments:
human PD-L1 [1] = target: T1, human PD-L1 (human, UniProt Q9NZQ7 19-290); assay: flow cytometry on CHO cells stably expressing PD-L1
T1 construct: also called huPD-L1; CD274
T1 sequence (Q9NZQ7 19-290): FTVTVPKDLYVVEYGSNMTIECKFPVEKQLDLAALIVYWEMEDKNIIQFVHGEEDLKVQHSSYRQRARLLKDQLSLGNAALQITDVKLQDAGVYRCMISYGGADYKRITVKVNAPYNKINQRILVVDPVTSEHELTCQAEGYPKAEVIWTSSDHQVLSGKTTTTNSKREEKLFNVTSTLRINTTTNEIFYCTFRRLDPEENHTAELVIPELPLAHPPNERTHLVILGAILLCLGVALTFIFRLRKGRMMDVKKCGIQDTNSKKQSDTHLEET

human CD28 [2] = target: T2, human CD28 (human, UniProt P10747 19-220); assay: flow cytometry on Jurkat cells (CD28)
T2 construct: Endogenous CD28 on Jurkat/IL2 reporter cells

[3] = target: T3, human CD28, endogenously expressed on Jurkat/IL2 reporter cells (human, UniProt P10747 19-220); assay: flow cytometry, Jurkat/IL2 reporter cells (endogenous CD28), 33.3 nM Fc fusion, PE anti-human Fc
T3 construct: This is the endogenous CD28 of Jurkat cells

[4] = target: T3, human CD28, endogenously expressed on …; assay: flow cytometry on Jurkat cells (CD28); MFI against WT CD80 ECD-Fc (R&D)
[5] = target: T4, human PD-L1 (CD274), full-length, expressed on the surface of CHO cells (human, UniProt Q9NZQ7 19-290); assay: flow cytometry, CHO cells stably expressing human PD-L1, 33.3 nM Fc fusion, PE anti-human Fc
T4 construct: also called huPD-L1; B7-H1
T4 sequence (Q9NZQ7 19-290): as above

[6] = target: T4, human PD-L1 (CD274), full-length, …; assay: flow cytometry on PD-L1 CHO cells; MFI against WT CD80 ECD-Fc (R&D)
[7] = target: T4, human PD-L1 (CD274), full-length, …; assay: flow cytometry; MFI on PD-L1 CHO cells over MFI on Jurkat cells (CD28)
[8] = target: T5, human CTLA-4 (CTLA4), full-length, expressed on the surface of CHO cells (human, UniProt P16410 36-223); assay: flow cytometry on CTLA-4 CHO cells; MFI against WT CD80 ECD-Fc (R&D)
T5 construct: also called huCTLA4
T5 sequence (P16410 36-223): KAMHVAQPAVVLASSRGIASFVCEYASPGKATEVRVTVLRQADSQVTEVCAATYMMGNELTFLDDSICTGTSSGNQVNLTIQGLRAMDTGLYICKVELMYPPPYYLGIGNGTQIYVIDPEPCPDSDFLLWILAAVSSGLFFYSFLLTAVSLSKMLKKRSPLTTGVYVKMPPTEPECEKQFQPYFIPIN

[9] = target: T5, human CTLA-4 (CTLA4), full-length, …; assay: flow cytometry, CHO cells stably expressing human CTLA-4, 33.3 nM Fc fusion, PE anti-human Fc
human CTLA-4 = target: T6, human CTLA-4 (human, UniProt P16410 36-223); assay: flow cytometry, CHO cells stably expressing CTLA4
T6 construct: also called huCTLA4
T6 sequence (P16410 36-223): as above

human CD28 [10] = target: human CD28 (human, UniProt P10747 19-220); assay: flow cytometry, Jurkat cells (CD28)
human PD-L1 [11] = target: T7, human PD-L1 (human, UniProt Q9NZQ7 19-290); assay: flow cytometry; PD-L1 MFI over CD28 MFI
T7 construct: also called huPD-L1; CD274
T7 sequence (Q9NZQ7 19-290): as the sequence (Q9NZQ7 19-290) above

human PD-L1 [12] = target: T7, human PD-L1; assay: flow cytometry, CHO cells stably expressing PD-L1
[13] = target: T8, human CTLA4 (huCTLA4), full-length, stably expressed on CHO cells (human, UniProt P16410 36-223); assay: flow cytometry, CHO cells expressing huCTLA4
T8 construct: whole, on cells
T8 sequence (P16410 36-223): as the sequence (P16410 36-223) above

[14] = target: T9, CD28, endogenously expressed on Jurkat/IL2 reporter cells (human, UniProt P10747 19-220); assay: flow cytometry, Jurkat/IL2 reporter cells (endogenous CD28)
T9 construct: whole, on cells

[15] = target: T10, human PD-L1 (huPD-L1), full-length, stably expressed on CHO cells (human, UniProt Q9NZQ7 19-290); assay: flow cytometry, CHO cells expressing huPD-L1
T10 construct: whole, on cells
T10 sequence (Q9NZQ7 19-290): as the sequence (Q9NZQ7 19-290) above

[16] = target: T11, human PD-L1, expressed on CHO cells (human, UniProt Q9NZQ7 19-290); assay: flow cytometry on CHO cells stably expressing human PD-L1; PE anti-human Fc
T11 construct: Full-length surface expression construct transduced by lentivirus into CHO cells; also called huPD-L1; CD274
T11 sequence (Q9NZQ7 19-290): as above

CD96 = target: T12, CD96 (UniProt P40200 22-585, limits assumed); assay: flow cytometry on cells expressing CD96, Fc fusion at 100 nM
T12 construct: whole, on cells
T12 sequence (looked up): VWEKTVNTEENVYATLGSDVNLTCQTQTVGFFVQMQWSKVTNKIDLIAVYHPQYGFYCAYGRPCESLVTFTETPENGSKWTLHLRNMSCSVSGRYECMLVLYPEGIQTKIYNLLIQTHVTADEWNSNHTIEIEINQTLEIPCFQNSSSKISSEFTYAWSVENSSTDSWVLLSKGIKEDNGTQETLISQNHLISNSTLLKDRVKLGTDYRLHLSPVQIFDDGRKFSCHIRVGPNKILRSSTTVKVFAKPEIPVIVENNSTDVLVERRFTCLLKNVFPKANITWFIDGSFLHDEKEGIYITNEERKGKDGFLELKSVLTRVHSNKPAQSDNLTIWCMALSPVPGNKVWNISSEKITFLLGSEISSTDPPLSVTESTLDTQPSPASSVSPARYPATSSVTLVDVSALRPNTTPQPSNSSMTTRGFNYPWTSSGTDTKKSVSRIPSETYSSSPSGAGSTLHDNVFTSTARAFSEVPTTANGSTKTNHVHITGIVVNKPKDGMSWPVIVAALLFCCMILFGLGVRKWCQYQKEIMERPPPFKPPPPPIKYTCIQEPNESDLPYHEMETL

CD226 = target: T13, CD226 (UniProt Q15762 19-336); assay: flow cytometry on cells expressing CD226, Fc fusion at 100 nM
T13 construct: whole, on cells
T13 sequence (looked up): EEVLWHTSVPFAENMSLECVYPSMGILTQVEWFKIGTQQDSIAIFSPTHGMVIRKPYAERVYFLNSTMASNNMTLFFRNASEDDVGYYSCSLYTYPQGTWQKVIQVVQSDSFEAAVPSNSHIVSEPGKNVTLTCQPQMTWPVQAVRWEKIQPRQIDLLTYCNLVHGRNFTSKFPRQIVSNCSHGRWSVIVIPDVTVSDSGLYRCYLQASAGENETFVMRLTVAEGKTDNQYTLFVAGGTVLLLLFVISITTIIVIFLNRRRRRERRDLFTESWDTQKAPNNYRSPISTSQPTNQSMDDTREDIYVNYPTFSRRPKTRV

B1: CD80 ECD-Fc (inert) with GSG4S linker, Example 16 (Fc fusion)
chain: VIHVTKEVKEVATLSCGHNVSVEELAQTRIYWQKEKKMVLTMMSGDMNIWPEYKNRTIFDITNNLSIVILALRPSDEGTYECVVLKYEKDAFKREHLAEVTLSVKADFPTPSISDFEIPTSNIRRIICSTSGGFPEPHLSWLENGEELNAINTTVSQDPETELYAVSSKLDFNMTTNHSFMCLIKYGHLRVNQTFNWNTTKQEHFPDNGSGGGGSEPKSSDKTHTCPPCPAPEAEGAPSVFLFPPKPKDTLMISRTPEVTCVVVDVSHEDPEVKFNWYVDGVEVHNAKTKPREEQYNSTYRVVSVLTVLHQDWLNGKEYKCKVSNKALPAPIEKTISKAKGQPREPQVYTLPPSREEMTKNQVSLTCLVKGFYPSDIAVEWESNGQPENNYKTTPPVLDSDGSFFLYSKLTVDKSRWQQGNVFSCSVMHEALHNHYTQKSLSLSPG
MFI at 33.3 nM (human PD-L1 [1]): 35 MFI
MFI at 33.3 nM (human CD28 [2]): 37 MFI

B2: variant CD80 IgV-Fc V22A/R29H/E35D/D46E/M47I (Fc fusion, not shown: a dimerising Fc or GST)
chain: VIHVTKEVKEVATLSCGHNVSAEELAQTHIYWQKDKKMVLTMMSGEINIWPEYKNRTIFDITNNLSIVILALRPSDEGTYECVVLKYEKDAFKREHLAEVTLSVKAD
MFI at 33.3 nM [3]: 323 MFI
Fold change to WT [4]: 0.04 fold
MFI at 33.3 nM [5]: 25400 MFI
Fold change to WT [6]: 3.2 fold
Ratio of PDL1:CD28 [7]: 79 ratio
Fold change to WT CD80 [8]: 0.43 fold
MFI at 33.3 nM [9]: 77400 MFI

B3: CD80 E35D/M47V/N48K/V68M/K89N IgV-Fc, GS(G4S)3 linker (Fc fusion, not shown: a dimerising Fc or GST)
chain: VIHVTKEVKEVATLSCGHNVSVEELAQTRIYWQKDKKMVLTMMSGDVKIWPEYKNRTIFDITNNLSIMILALRPSDEGTYECVVLKYENDAFKREHLAEVTLSVKADGSGGGGSGGGGSGGGGS
MFI at 33.3 nM (human PD-L1 [1]): 24200 MFI
MFI at 33.3 nM (human CD28 [2]): 2110 MFI

B4: CD80 E35D/D46V/M47L/V68M/L85Q/E88D IgV-Fc, GS(G4S)3 linker (Fc fusion, not shown: a dimerising Fc or GST)
chain: VIHVTKEVKEVATLSCGHNVSVEELAQTRIYWQKDKKMVLTMMSGVLNIWPEYKNRTIFDITNNLSIMILALRPSDEGTYECVVQKYDKDAFKREHLAEVTLSVKADGSGGGGSGGGGSGGGGS
MFI at 33.3 nM (human PD-L1 [1]): 22600 MFI
MFI at 33.3 nM (human CD28 [2]): 267 MFI

B5: CD80 IgV-Fc T13R/Q27L/Q33L/E35D/T41S/M47V/N48K/V68M/L85M (Fc fusion, not shown: a dimerising Fc or GST)
chain: VIHVTKEVKEVARLSCGHNVSVEELALTRIYWLKDKKMVLSMMSGDVKIWPEYKNRTIFDITNNLSIMILALRPSDEGTYECVVMKYEKDAFKREHLAEVTLSVKAD
Fold change to WT CD80 (human CTLA-4): 0.1 fold
MFI at 33.3 nM (human CTLA-4): 109 MFI
Fold change to WT CD80 (human CD28 [10]): 0.5 fold
MFI at 33.3 nM (human CD28 [10]): 14.6 MFI
Ratio of PDL1:CD28 (human PD-L1 [11]): 224 ratio
Fold change to WT CD80 (human PD-L1 [12]): 63.5 fold
MFI at 33.3 nM (human PD-L1 [12]): 3270 MFI

B6: variant CD80 IgV-Fc E35D/M47V/V68M/L85M (Fc fusion, not shown: small tags and cut ends; a dimerising Fc or GST)
chain: VIHVTKEVKEVATLSCGHNVSVEELAQTRIYWQKDKKMVLTMMSGDVNIWPEYKNRTIFDITNNLSIMILALRPSDEGTYECVVMKYEKDAFKREHLAEVTLSVKAD
MFI at 33.3 nM [13]: 16000 MFI
MFI at 33.3 nM [14]: 201 MFI
MFI at 33.3 nM [15]: 9180 MFI

B7: variant CD80 IgV-Fc E35D/D46E/M47L/V68M/T79M/L85M (Fc fusion, not shown: small tags and cut ends; a dimerising Fc or GST)
chain: VIHVTKEVKEVATLSCGHNVSVEELAQTRIYWQKDKKMVLTMMSGELNIWPEYKNRTIFDITNNLSIMILALRPSDEGMYECVVMKYEKDAFKREHLAEVTLSVKAD
MFI at 33.3 nM [14]: 403 MFI
MFI at 33.3 nM [15]: 8640 MFI

B8: CD80 IgV-Fc T13R/Q33L/E35D/M47L/V68M/L85M (Fc fusion, not shown: a dimerising Fc or GST)
chain: VIHVTKEVKEVARLSCGHNVSVEELAQTRIYWLKDKKMVLTMMSGDLNIWPEYKNRTIFDITNNLSIMILALRPSDEGTYECVVMKYEKDAFKREHLAEVTLSVKAD
Fold change to WT CD80 (human CTLA-4): 0.1 fold
MFI at 33.3 nM (human CTLA-4): 141 MFI
Fold change to WT CD80 (human CD28 [10]): 0.5 fold
MFI at 33.3 nM (human CD28 [10]): 15.7 MFI
Ratio of PDL1:CD28 (human PD-L1 [11]): 206 ratio
Fold change to WT CD80 (human PD-L1 [12]): 62.7 fold
MFI at 33.3 nM (human PD-L1 [12]): 3230 MFI

B9: variant CD80 IgV-Fc E35D/M38T/D46E/M47V/N48S (Fc fusion, not shown: small tags and cut ends; a dimerising Fc or GST)
chain: VIHVTKEVKEVATLSCGHNVSVEELAQTRIYWQKDKKTVLTMMSGEVSIWPEYKNRTIFDITNNLSIVILALRPSDEGTYECVVLKYEKDAFKREHLAEVTLSVKAD
notes: Fc fusion of the variant IgV
MFI at 33.3 nM [16]: 19400 MFI

B10: CD80 IgV-Fc T13R/Q33R/E35D/M38I/M47L/V68M (Fc fusion, not shown: a dimerising Fc or GST)
chain: VIHVTKEVKEVARLSCGHNVSVEELAQTRIYWRKDKKIVLTMMSGDLNIWPEYKNRTIFDITNNLSIMILALRPSDEGTYECVVLKYEKDAFKREHLAEVTLSVKAD
Fold change to WT CD80 (human CD28 [10]): 0.4 fold
MFI at 33.3 nM (human CD28 [10]): 13.8 MFI
Ratio of PDL1:CD28 (human PD-L1 [11]): 325 ratio
Fold change to WT CD80 (human PD-L1 [12]): 87 fold
MFI at 33.3 nM (human PD-L1 [12]): 4480 MFI

B11: CD155 S52L/L104E variant IgV-Fc fusion (Fc fusion, not shown: a dimerising Fc or GST)
chain: WPPPGTGDVVVQAPTQVPGFLGDSVTLPCYLQVPNMEVTHVSQLTWARHGELGSMAVFHQTQGPSYSESKRLEFVAARLGAELRNASLRMFGLRVEDEGNYTCEFVTFPQGSRSVDIWLRVL
MFI at 100 nM (CD96): 1830 MFI
MFI at 100 nM (CD226): 2210 MFI

B12: CD155 T45Q/S52R/G111R variant IgV-Fc fusion (Fc fusion, not shown: a dimerising Fc or GST)
chain: WPPPGTGDVVVQAPTQVPGFLGDSVTLPCYLQVPNMEVTHVSQLQWARHGERGSMAVFHQTQGPSYSESKRLEFVAARLGAELRNASLRMFGLRVEDEGNYTCLFVTFPQRSRSVDIWLRVL
MFI at 100 nM (CD96): 2340 MFI
MFI at 100 nM (CD226): 2080 MFI

B13: CD155 T45Q/S52Q variant IgV-Fc fusion (Fc fusion, not shown: a dimerising Fc or GST)
chain: WPPPGTGDVVVQAPTQVPGFLGDSVTLPCYLQVPNMEVTHVSQLQWARHGEQGSMAVFHQTQGPSYSESKRLEFVAARLGAELRNASLRMFGLRVEDEGNYTCLFVTFPQGSRSVDIWLRVL
MFI at 100 nM (CD96): 2450 MFI
MFI at 100 nM (CD226): 5790 MFI
